Experimental data: PMC7718890

Target: CarD WT;MTB RNAP (WT) (Mycobacterium …, UniProt P9WJG3;P9WGZ1;P9WGY9;P9WGY7;P9WGY5 1-162;1-347;1-1178;1-1316;1-110, |)
Experiment: competition (fluorescence polarization)
Conditions: protein: recombinant;recombinant; tags: ;; copies: 1;2;1;1;1; blunt

B1: rrnAP3 native 61 bp (dsDNA)
DNA 1: GATGACCGAACCTGGTCTTGACTCCATTGCCGGATTTGTATTAGACTGGCAGGGTTGCCCC
DNA 2: GGGGCAACCCTGCCAGTCTAATACAAATCCGGCAATGGAGTCAAGACCAGGTTCGGTCATC
Ki: 8 ± 1 nM
